We go through seven molecules from patent US20250250357A1 (NANJING ZAIMING PHARMACEUTICAL, published 2025).

Numbering of substitutions follows the chain as printed.

T1: human MSLN-R1-his protein (human, UniProt Q13421 296-390)
T1 construct: also called hMSLN-R1-his; human MSLN-R1 protein; not shown: His tag
T1 chain: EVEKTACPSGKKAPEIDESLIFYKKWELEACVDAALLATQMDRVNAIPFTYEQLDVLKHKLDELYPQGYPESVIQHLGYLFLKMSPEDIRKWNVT

B1: S009-F1.62.9 human-murine chimeric antibody (antibody, human IgG1, kappa, V domains shown)
VH: EVQLQQSGADLVKPGASVKLSCTVFGLNFKDTFMHWVRQRPEQGLEWIGRIDPANDNSIYGPKFQDKATITADTSSNTAYLHLSSLTSEDTAVYYCLYFDNWGHGTTLTVSS
VL: DIVMTQAASSEPVTPGESVSISCRSDKSLLHSNGHNYLYWFLQRPGQSPHLLIYRMSNLASGVPDRFSGSGSGTAFTLRISRVEAEDVGVYYCMQHLEYPLTFGAGTKLELKR
notes: Chimeric IgG1/kappa
B2: S009-F3.23.1 (antibody, human IgG1, kappa, V domains shown)
VH: QVQLQQSGADLVRPGASVTLSCKASGYTFTDYEMHWVKQTPVHGLEWIGAIDPETGDTVYNQNFKGKAILTADKSSSTAYMELRSLTSEDSAVYYCTRYGYDWGWGQGTTLTVSS
VL: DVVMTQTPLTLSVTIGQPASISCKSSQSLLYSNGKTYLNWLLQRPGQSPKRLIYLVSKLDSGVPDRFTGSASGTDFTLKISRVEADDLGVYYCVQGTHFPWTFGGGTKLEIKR
notes: human-murine chimeric antibody, human IgG1/kappa constant regions
B3: S009-F3.74.20 (antibody, human IgG1, kappa, V domains shown)
VH: RVQLQQSGAELVRPGASVTLSCKASGYTFTDSEMHWVKQTPVHGLEWIGAIDPEIDGTAYNQNFRDKAILTADKSSSTAYMELRSLTSEDSAVYYCTTYFGSGYGYFDVWGTGTTVTVSS
VL: DVVMTQTPLSLSVSLGDQASISCRSSQSLVYSNGNTYLHWFLQKPGQSPKLLIYKVSNRFSGVPDRFSGSGSGTDFTLKINRVEAEDLGVYFCSQSTHIPFTFGAGTKLELKR
notes: as for B2
B4: S009-F4-127.10 (antibody, human IgG1, kappa, V domains shown)
VH: EVQLQQSGPVLVKPGASVKMSCKASGYTFTDYYMNWVKQSHGKSPEWIGVINPYNDVISYNQKFKGKATLTVDKSSSTAYMELNSLTSEDSAVYYCANYGSSYYAMDYWGQGTSVTVSS
VL: B3 VL with Y31H, H39Q, F41S, K50N, N81S, S96T, I99V, A105G, L111I, K112R
notes: as for B2
B5: S009-F3.80.22 (antibody, human IgG1, kappa, V domains shown)
VH: QVQLQQSGAELVRPGASVTLSCKASGYTFTDYEIHWVKQTPVHGLEWIGAFDPEIGGSAYNQKFKDRATLTADKSSSTAYMELHSLTAEDSAVYYCTDYYGSSSGYFDVWGTGTTVTVSS
VL: B3 VL with S12P, V30E, Y31H, S32N, Q43H, N81S, I99V, A105S, L111I
notes: as for B2
B6: S009-F3.45.21 (antibody, human IgG1, kappa, V domains shown)
VH: DVQLQESGPGLVKPSQSLSLTCSVTGDSITSGYYWNWIRQFPGNKLEWMGFIRFDGTNNYNPSLKNRISITRDTSKNQFFLKLNSVTTEDTATYYCAREGSYAPAWFAYWGQGTLVTVSA
VL: QIVLTQSPAIMSASPGEKVTMTCSASSSLSYMYWYQQKPGSSPRLLIYDTSNLASGVPVRFSGSGSGTSYSLTISRMEAEDAATYYCQQWSSYPPTFGGGTKLEIKR
notes: as for B2
B7: S009-F3.51.8 (antibody, human IgG1, kappa, V domains shown)
VH: QVQLQQSGAELVRPGASVTLSCKASGYTFTDYEMHWVKQTPVHGLEWIGGFDPETGGTAHNQKFKGKAILTADKSSSTAYMELRSLTSEDSAVYYCSNYGSIWGDCWGQGTSVTVSS
VL: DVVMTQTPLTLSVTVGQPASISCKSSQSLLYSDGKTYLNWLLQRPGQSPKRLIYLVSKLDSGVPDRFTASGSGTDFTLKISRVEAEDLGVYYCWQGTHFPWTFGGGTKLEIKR
notes: as for B2

The first assay addresses T2, human MSLN-FL-his protein (human, UniProt Q13421 296-580).
T2 construct: also called hMSLN-FL-his; human MSLN full-length protein; not shown: His tag
The assay is described as follows: ELISA, coated antigen; antibody 0.1 nM. Background: ELISA stands for enzyme-linked immunosorbent assay.
Target sequence in this assay (Q13421 other isoform, or with tags, fused parts or gaps): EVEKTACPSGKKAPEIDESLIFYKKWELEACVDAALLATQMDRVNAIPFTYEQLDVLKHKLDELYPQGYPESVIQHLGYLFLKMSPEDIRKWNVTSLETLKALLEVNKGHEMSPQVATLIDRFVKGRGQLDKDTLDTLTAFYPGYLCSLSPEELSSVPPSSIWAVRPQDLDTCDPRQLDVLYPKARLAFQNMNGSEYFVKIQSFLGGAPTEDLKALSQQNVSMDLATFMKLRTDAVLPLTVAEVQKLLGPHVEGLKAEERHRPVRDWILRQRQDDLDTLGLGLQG
B1 came in with an OD450 of 1.79.

The target in a further assay is T1, human MSLN-R1-his protein. The assay is described as follows: ELISA, coated antigen; antibody 1 nM.
Description: (§1) The plate was sealed with a plastic film and incubated at 4° C. overnight. The next day, the plate was washed twice with PBST, and a blocking buffer [PBS+2% (w/w) BSA] was added for blocking at room temperature for 2 h. The blocking buffer was discarded, and a chimeric antibody or negative control antibody serially diluted from 100 nM was added at 50 μL/well. After incubation at 37° C. for 2 h, the plate was washed 3 times with PBST. […] After incubation at 37° C. for 2 h, the plate was washed 5 times with PBST. A TMB substrate was added at 50 μL/well for incubation at room temperature for 5-10 min, and then a stop solution (1.0 N HCl) was added at 50 μL/well.
B1: the OD450 turned out to be 0.04.

The target in another assay is T1, human MSLN-R1-his protein. The assay is described as follows: ELISA, coated antigen; antibody 0.1 nM.
Description: as §1
In turn, B1 came in with an OD450 of 0.04.

The target in another assay is T3, human MSLN-FL-his protein (human, UniProt Q13421 296-580).
T3 construct: made in HEK293E cells, purified on nickel column; also called hMSLN-FL-his; human MSLN full-length protein; not shown: His tag
The assay is described as follows: competitive ELISA; coated 2ug/ml Tab142 (R1).
T3 sequence (Q13421 other isoform, or with tags, fused parts or gaps): as above
On to B2, for which the competition rate was -25%.

On to B3, for which the competition rate is -28%.

B4: the competition rate was -27%.

In the case of B5, the competition rate was 81%.

For the molecule B6, the competition rate was -38%.

As for B7, the competition rate was -34%.

In a further assay the target is T2, human MSLN-FL-his protein. The assay is described as follows: ELISA, coated antigen; no antibody (blank, column 'none').
Description: as §1
As for B1, the OD450 is 0.05.

The target of a further assay is T2, human MSLN-FL-his protein. The assay is described as follows: ELISA, coated antigen; antibody 1 nM.
Target sequence in this assay (Q13421 other isoform, or with tags, fused parts or gaps): as above
Description: as §1
Regarding B1, the OD450 turned out to be 2.35.

For another assay, the target named is T1, human MSLN-R1-his protein. The assay is described as follows: ELISA, coated antigen; antibody 10 nM.
Description: as §1
In the case of B1, the OD450 was found to be 0.04.

Another assay deals with T3, human MSLN-FL-his protein. The assay is described as follows: competitive ELISA; coated 2ug/ml F3.23.1.
Description: (§2) In order to identify antigen-binding sites of antibodies, MSLN chimeric antibodies were grouped using competitive ELISA.
(§3) The chimeric antibodies were diluted to 2 μg/mL with PBS and allowed to coat 96-well high-adsorption ELISA plates at 50 μL/well. After the plates were coated at 4° C. overnight, 250 μL of a blocking buffer (PBS containing 2% (w/w) BSA) was added for two hours of blocking at room temperature. 40 μg/mL of the antibodies to be tested were added, and then the human MSLN-FL-His protein with an EC₈₀ concentration corresponding to each of the antibodies to be tested was added for incubation for 2 h. The plates were washed 5 times with PBS, an HRP-labeled anti-His secondary antibody (purchased from Genescript, Cat. No. A00612) was then added for incubation for 1 h, and the plates were washed 5 times again. A TMB substrate was added at 50 μL/well, and after 10 minutes of incubation at room temperature, a stop solution (1.0 M HCl) was added at 50 μL/well. OD₄₅₀ nm values were read using an ELISA plate reader (Insight, purchased from PerkinElmer), and the competition rate between the antibodies was calculated according to the OD₄₅₀ nm values using a formula.
As to B2, the competition rate was 95%.

For the molecule B3, the competition rate stood at 100%.

Regarding B4, the competition rate amounted to 88%.

For B5, the competition rate is -109%.

As for B6, the competition rate came out at 99%.

On to B7, for which the competition rate was 101%.

The target of a further assay is T1, human MSLN-R1-his protein. The assay is described as follows: ELISA, coated antigen; no antibody (blank, column 'none').
Description: as §1
Molecule B1 came in with an OD450 of 0.05.

The target in another assay is T1, human MSLN-R1-his protein. The assay is described as follows: ELISA, coated antigen; antibody 100 nM.
Description: as §1
On to B1, for which the OD450 worked out at 0.06.

The next assay has as its target T3, human MSLN-FL-his protein. The assay is described as follows: competitive ELISA; coated 2ug/ml F3.80.22.
Description: as §2, §3
For B2, the competition rate was -36%.

For the molecule B3, the competition rate was -15%.

For B4, the competition rate is -5%.

For the molecule B5, the competition rate came to 63%.

Consider B6, for which the competition rate was -26%.

With B7, the competition rate was -17%.

A further assay has as its target T3, human MSLN-FL-his protein. The assay is described as follows: SPR (Biacore), antibody captured on Protein A chip.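 Also: measured at 25 °C, analyte injected 240 s in five twofold dilutions from 200 nM, dissociation up to 600 s, double-referenced, fitted with Langmuir 1:1 model.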 In general terms: Surface plasmon resonance follows binding to a sensor surface in real time, without labels.
What is called Kd is the concentration at which binding is half-saturated. Low values mean a tighter complex, high ones a looser complex. In general, koff refers to the first-order rate constant of dissociation. Read a high koff as a short-lived complex. Molecule B2 returned a Kd of 689 nM and a koff of 0.000703 s⁻¹.

A word on the kon: it is the second-order rate constant of association. A lower kon goes with slower complex formation. As to B3, binding was put at a Kd of 4.92 nM, the koff came out at 5.04e-05 s⁻¹ and the kon was 10300 M⁻¹ s⁻¹.

B4 registered a Kd of 171 nM, a koff of 0.000433 s⁻¹ and a kon of 2530 M⁻¹ s⁻¹.

B5 displayed a Kd of 151 nM, a koff of 0.000332 s⁻¹ and a kon of 2200 M⁻¹ s⁻¹.

As for B6, the dissociation constant Kd came out at 1.5 nM, the koff was determined as 0.00083 s⁻¹ and the kon was determined as 552000 M⁻¹ s⁻¹.

With B7, the Kd turned out to be 142 nM, the off-rate (koff) is 0.00035 s⁻¹ and the kon is 2470 M⁻¹ s⁻¹.

The next assay addresses T3, human MSLN-FL-his protein. The assay is described as follows: competitive ELISA; coated 2ug/ml F4-127.10.
Description: as §2, §3
On to B2, for which the competition rate stood at 31%.

Consider B3, for which the competition rate turned out to be 33%.

For B4, the competition rate stood at 16%.

For B5, the competition rate was -22%.

Turning to B6, the competition rate came out at 37%.

For B7, the competition rate amounted to 78%.

A further assay has as its target T2, human MSLN-FL-his protein. The assay is described as follows: ELISA, coated antigen; antibody 0.0001 nM.
Target sequence in this assay (Q13421 other isoform, or with tags, fused parts or gaps): as above
Description: as §1
Molecule B1 returned an OD450 of 0.06.

A further assay addresses T1, human MSLN-R1-his protein. The assay is described as follows: ELISA, coated antigen; antibody 0.001 nM.
Description: as §1
As to B1, the OD450 is 0.04.

Another assay addresses T1, human MSLN-R1-his protein. The assay is described as follows: ELISA, coated antigen; antibody 0.01 nM.
Description: as §1
Take B1: the OD450 amounted to 0.05.

The target in a further assay is T3, human MSLN-FL-his protein. The assay is described as follows: competitive ELISA; coated 2ug/ml F3.45.21.
Description: as §2, §3
As to B2, the competition rate is 89%.

For B3, the competition rate was 94%.

Turning to B4, the competition rate was 84%.

Consider B5, for which the competition rate was -67%.

On to B6, for which the competition rate is 92%.

Take B7: the competition rate was 98%.

A further assay deals with T2, human MSLN-FL-his protein. The assay is described as follows: ELISA, coated antigen; antibody 0.001 nM.
Target sequence in this assay (Q13421 other isoform, or with tags, fused parts or gaps): as above
Description: as §1
B1 returned an OD450 of 0.11.

For a further assay, the target named is T3, human MSLN-FL-his protein. The assay is described as follows: competitive ELISA; coated 2ug/ml Tab108 (R3).
Description: as §2, §3
Turning to B2, the competition rate stood at 35%.

Regarding B3, the competition rate was found to be 34%.

Regarding B4, the competition rate is -37%.

For the molecule B5, the competition rate is 35%.

Take B6: the competition rate was found to be 32%.

Take B7: the competition rate turned out to be 46%.

For a further assay, the target named is T2, human MSLN-FL-his protein. The assay is described as follows: ELISA, coated antigen; antibody 10 nM.
Target sequence in this assay (Q13421 other isoform, or with tags, fused parts or gaps): as above
Description: as §1
B1: the OD450 came to 2.59.

Another assay concerns the target T2, human MSLN-FL-his protein. The assay is described as follows: ELISA, coated antigen; antibody 0.01 nM.
Description: as §1
In turn, B1 registered an OD450 of 0.48.

For the next assay, the target named is T3, human MSLN-FL-his protein. The assay is described as follows: competitive ELISA; coated 2ug/ml F3.74.20.
Description: as §2, §3
For B2, the competition rate came to 93%.

With B3, the competition rate was found to be 98%.

B4: the competition rate came to 91%.

Turning to B5, the competition rate was -12%.

On to B6, for which the competition rate stood at 96%.

For the molecule B7, the competition rate was 101%.

The next assay concerns the target T1, human MSLN-R1-his protein. The assay is described as follows: ELISA, coated antigen; antibody 0.0001 nM.
Description: as §1
B1 yielded an OD450 of 0.04.

The target in the next assay is T2, human MSLN-FL-his protein. The assay is described as follows: ELISA, coated antigen; antibody 100 nM.
Description: as §1
For the molecule B1, the OD450 amounted to 2.61.

In another assay the target is T3, human MSLN-FL-his protein. The assay is described as follows: competitive ELISA; coated 2ug/ml F3.51.8.
Description: as §2, §3
As for B2, the competition rate was determined as 94%.

In the case of B3, the competition rate worked out at 96%.

As to B4, the competition rate is 87%.

With B5, the competition rate came to 43%.

As to B6, the competition rate was determined as 96%.

For the molecule B7, the competition rate turned out to be 102%.
